Reference: patent US20210032673A1

Assays:
[1] = biological target: calmodulin-sepharose (BioVision) (Homo sapiens (Human)) (UniProt P0DP23); test: calcium dose-response of luciferase-IQSEC2 binding to calmodulin-sepharose; the number is a calcium concentration, not a protein concentration
[2] = biological target: endogenous Arf6 of HEK293T cells (UniProt P62330); test: cell-based or functional assay
[3] = biological target: calmodulin-sepharose (BioVision) (Homo sapiens (Human)) (UniProt P0DP23); test: luciferase-IQSEC2 cell extract on calmodulin-sepharose, free calcium greater than 200 nM (calcium-calmodulin), 0.1% Triton X-100, n=11
[4] = biological target: calmodulin-sepharose (BioVision) (Homo sapiens (Human)) (UniProt P0DP23); test: luciferase-IQSEC2 cell extract on calmodulin-sepharose, no added calcium (5 mM EGTA, apocalmodulin), 0.1% Triton X-100, n=6
[5] = biological target: human Calm1 (NM_006888) with C-terminal triple FLAG tag (human) (UniProt P0DP23); test: Lumier assay in HEK293T cells, renilla luciferase after anti-FLAG pull-down
[6] = biological target: human Calm2 (NM_001743) with C-terminal triple FLAG tag (human) (UniProt P0DP24); test: as above
[7] = biological target: human Calm3 (NM_005184) with C-terminal triple FLAG tag (human) (UniProt P0DP25); test: as above
[8] = biological target: human Calm1 (NM_006888) with C-terminal triple FLAG tag (human) (UniProt P0DP23); test: Lumier assay in HEK293T cells, renilla luciferase after pull-down normalized to FLAG ELISA
[9] = biological target: human Calm2 (NM_001743) with C-terminal triple FLAG tag (human) (UniProt P0DP24); test: as above
[10] = biological target: human Calm3 (NM_005184) with C-terminal triple FLAG tag (human) (UniProt P0DP25); test: as above
GFP-FLAG [GFP: P42212] = test: Lumier assay in HEK293T cells, negative control interactor GFP-FLAG (background)

Chain of endogenous Arf6 of HEK293T cells (P62330 2-175 limits assumed): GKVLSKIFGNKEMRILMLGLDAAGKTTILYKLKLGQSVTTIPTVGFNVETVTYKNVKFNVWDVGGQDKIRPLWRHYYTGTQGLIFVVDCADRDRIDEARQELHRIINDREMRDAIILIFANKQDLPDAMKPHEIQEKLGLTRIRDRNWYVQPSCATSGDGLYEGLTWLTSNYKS

free calcium concentration at half-maximal binding [1] [µM]	Arf6-GTP promoted, against wild type IQSEC2 protein [2] [fold]	increase in total Arf6-GTP by ELISA against cells expressing wild type IQSEC2 [2] [%]	total Arf6-GTP by ELISA, equivalent amounts of protein extract of stable HEK293T lines (spectrophotometric units) [2]	luciferase units bound to calmodulin sepharose (luciferase units) [3]	luciferase units bound to calmodulin sepharose (luciferase units) [4]	fold difference of interaction strength, wild type against A350V IQSEC2 [5] [fold]	fold difference of interaction strength, wild type against A350V IQSEC2 [6] [fold]	fold difference of interaction strength, wild type against A350V IQSEC2 [7] [fold]	fold higher normalized interaction score, wild type against A350V IQSEC2 [8] [fold]	fold higher normalized interaction score, wild type against A350V IQSEC2 [9] [fold]	fold higher normalized interaction score, wild type against A350V IQSEC2 [10] [fold]	fold change of interaction strength, wild type against mutant IQSEC2 (GFP-FLAG [GFP: P42212]) [fold]	Arf6 activation (Arf6-GTP, GGA3 pulldown and immunoblot) with ionomycin, fold over sham transfected cells [2] [fold]	Arf6 activation (Arf6-GTP, GGA3 pulldown and immunoblot), fold over sham transfected cells [2] [fold]	Substance
1	30	25	0.075	594	48	–	–	–	–	–	–	–	–	–	renilla luciferase-HAx3-A350V IQSEC2 (from UniProt Q5JU85 1-1488)
–	–	–	0.06	–	–	34	15	36	31	14	31	1.07	–	–	renilla luciferase-HAx3-wild type IQSEC2 (full length human IQSEC2, pcDNA3.1 Zeo construct) (from UniProt Q5JU85 1-1488)
–	–	–	–	–	–	–	–	–	–	–	–	–	8.03	3.87	FLAG-tagged wild type IQSEC2 (pCAGGS) (from UniProt Q5JU85 1-1488)
